# In ChEMBL document CHEMBL1123679, “5-Quinone derivatives of 2'-deoxyuridine 5'-phosphate: inhibition and inactivation of thymidylate synthase, antitumor cell, and antiviral studies” (J Med Chem, 1987):
# How the values were obtained:
# [1] = substrate: CC1=C(C)C(=O)C(c2cn([C@H]3C[C@H](O)[C@@H](COP(=O)(O)O)O3)c(=O)[nH]c2=O)=CC1=O; conditions: L1210
# [2] = substrate: CC1=C(C)C(=O)C(c2cn([C@H]3C[C@H](O)[C@@H](COP(=O)(O)O)O3)c(=O)[nH]c2=O)=C(C)C1=O; conditions: L1210
# [3] = substrate: CC1=C(c2cn([C@H]3C[C@H](O)[C@@H](COP(=O)(O)O)O3)c(=O)[nH]c2=O)C(=O)c2ccccc2C1=O; conditions: L1210
# [4] = compound: O=C1C=CC(=O)C(c2cn([C@H]3C[C@H](O)[C@@H](COP(=O)(O)O)O3)c(=O)[nH]c2=O)=C1; assay: (§1) Ability to inhibit the thymidylate synthase from Lactobacillus casei was determined and expressed as inhibition constant(Km); conditions: Lacticaseibacillus casei
# [5] = compound: COc1c(C)c(C)c(OC)c(-c2cn([C@H]3C[C@H](O)[C@@H](COP(=O)(O)O)O3)c(=O)[nH]c2=O)c1C; assay: as §1; conditions: Lacticaseibacillus casei
# [6] = compound: COc1c(C)c(-c2cn([C@H]3C[C@H](O)[C@@H](COP(=O)(O)O)O3)c(=O)[nH]c2=O)c(OC)c2ccccc12; assay: as §1; conditions: Lacticaseibacillus casei
# [7] = substrate: CC1=C(C)C(=O)C(c2cn([C@H]3C[C@H](O)[C@@H](COP(=O)(O)O)O3)c(=O)[nH]c2=O)=CC1=O; conditions: Lacticaseibacillus casei
# [8] = substrate: CC1=C(C)C(=O)C(c2cn([C@H]3C[C@H](O)[C@@H](COP(=O)(O)O)O3)c(=O)[nH]c2=O)=C(C)C1=O; conditions: Lacticaseibacillus casei
# [9] = substrate: CC1=C(c2cn([C@H]3C[C@H](O)[C@@H](COP(=O)(O)O)O3)c(=O)[nH]c2=O)C(=O)c2ccccc2C1=O; conditions: Lacticaseibacillus casei
# [10] = substrate: COc1cc(-c2cn([C@H]3C[C@H](O)[C@@H](COP(=O)(O)O)O3)c(=O)[nH]c2=O)c(OC)c(C)c1C; conditions: Lacticaseibacillus casei
protein,measurement,setting,value
"Thymidylate synthase (Mus musculus), P07607 (protein) MLVVGSELQSDAQQLSAEAPRHGELQYLRQVEHILRCGFKKEDRTGTGTLSVFGMQARYSLRDEFPLLTTKRVFWKGVLEELLWFIKGSTNAKELSSKGVRIWDANGSRDFLDSLGFSARQEGDLGPVYGFQWRHFGAEYKDMDSDYSGQGVDQLQKVIDTIKTNPDDRRIIMCAWNPKDLPLMALPPCHALCQFYVVNGELSCQLYQRSGDMGLGVPFNIASYALLTYMIAHITGLQPGDFVHTLGDAHIYLNHIEPLKIQLQREPRPFPKLKILRKVETIDDFKVEDFQIEGYNPHPTIKMEMAV",Km,[1],2.46 µM
same,Km,[2],0.57 µM
same,Km,[3],0.6 µM
"Thymidylate synthase (Lactobacillus casei), P00469 (protein) MLEQPYLDLAKKVLDEGHFKPDRTHTGTYSIFGHQMRFDLSKGFPLLTTKKVPFGLIKSELLWFLHGDTNIRFLLQHRNHIWDEWAFEKWVKSDEYHGPDMTDFGHRSQKDPEFAAVYHEEMAKFDDRVLHDDAFAAKYGDLGLVYGSQWRAWHTSKGDTIDQLGDVIEQIKTHPYSRRLIVSAWNPEDVPTMALPPCHTLYQFYVNDGKLSLQLYQRSADIFLGVPFNIASYALLTHLVAHECGLEVGEFIHTFGDAHLYVNHLDQIKEQLSRTPRPAPTLQLNPDKHDIFDFDMKDIKLLNYDPYPAIKAPVAV",Km,[4],7.6 µM
same,Km,[5],5.25 µM
same,Km,[6],5.25 µM
same,Km,[7],6.98 µM
same,Km,[8],6.98 µM
same,Km,[9],6.41 µM
same,Km,[10],5.25 µM
